Results from publication PMC2962642, “Familial Glucocorticoid Receptor Haploinsufficiency by Non-Sense Mediated mRNA Decay, Adrenal Hyperplasia and Apparent Mineralocorticoid Excess”.

Molecular target: WT hGRalpha (glucocorticoid receptor) (Homo sapiens, UniProt P04150 1-777)
Experiment: EMSA; complex abolished by 50 ng unlabeled probe; 15 min at 25 C; 4.5% acrylamide/bisacrylamide (37:1) gel, 0.25x TBE (50 mM Tris, 50 mM boric acid, 1 mM EDTA); binding buffer and pH not stated (as in ref. 26)
Conditions: protein: ivt; chain copies: 2; label: 32P-dCTP (Klenow fill-in); 5' overhangs AGCT, filled in by Klenow for the labeled probe

Sequence of WT hGRalpha (glucocorticoid receptor) (P04150 whole entry): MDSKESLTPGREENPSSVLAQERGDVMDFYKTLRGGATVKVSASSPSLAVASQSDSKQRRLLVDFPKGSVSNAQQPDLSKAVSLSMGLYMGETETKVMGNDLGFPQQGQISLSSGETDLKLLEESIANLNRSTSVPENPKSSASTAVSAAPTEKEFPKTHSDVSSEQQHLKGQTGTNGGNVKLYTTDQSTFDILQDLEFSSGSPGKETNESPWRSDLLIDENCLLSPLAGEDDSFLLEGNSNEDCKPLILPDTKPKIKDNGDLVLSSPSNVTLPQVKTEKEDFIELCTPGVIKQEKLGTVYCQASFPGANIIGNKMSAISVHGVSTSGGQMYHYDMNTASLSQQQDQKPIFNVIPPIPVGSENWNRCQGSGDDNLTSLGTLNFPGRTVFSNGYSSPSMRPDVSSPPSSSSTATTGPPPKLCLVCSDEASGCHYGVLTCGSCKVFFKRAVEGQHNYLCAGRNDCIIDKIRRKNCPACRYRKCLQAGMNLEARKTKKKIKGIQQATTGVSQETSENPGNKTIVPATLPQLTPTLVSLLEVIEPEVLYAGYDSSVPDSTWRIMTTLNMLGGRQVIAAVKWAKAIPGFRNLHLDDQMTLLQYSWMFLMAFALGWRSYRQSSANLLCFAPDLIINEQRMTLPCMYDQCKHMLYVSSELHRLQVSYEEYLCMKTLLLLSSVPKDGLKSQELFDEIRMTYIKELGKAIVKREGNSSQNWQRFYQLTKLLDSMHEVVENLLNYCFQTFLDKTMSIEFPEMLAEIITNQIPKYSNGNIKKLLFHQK

B1: GRE consensus probe (dsDNA)
DNA 1: AGCTGCTCAGCTAGAACACTCTGTTCTCTACT
DNA 2: AGCTAGTAGAGAACAGAGTGTTCTAGCTAGC
B1: binds.
